System: Escherichia coli TOP10
Assay: shrunken log2 fold change of peptide-encoding DNA abundance (4.5 h post-induction vs induction); higher = less antimicrobial activity (less host growth inhibition)
Settings: time post-induction: 4.5 h; library: site-saturation at positions 5, 18, 19, 20
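Also: peptides expressed intracellularly from a pBAD plasmid library in pooled LB shake-flask culture, induced with 0.3% L-arabinose, DNA abundance read by NGS, three biological replicates, DESeq2 with apeglm shrinkage.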

Row | Sequence | shrunken log2 fold change
1 | RRIRERPPRLPRPRPRPLMNPRP | -0.336
2 | RRIRGRPPRLPRPRPRPLKAPRP | 0.0177
3 | RRIRRRPPRLPRPRPRPGILPRP | -0.174
4 | RRIRARPPRLPRPRPRPMANPRP | 0.285
5 | RRIRVRPPRLPRPRPRPDGEPRP | 0.487
6 | RRIRQRPPRLPRPRPRPQTRPRP | -0.0472
7 | RRIRFRPPRLPRPRPRPDPYPRP | -0.437
8 | RRIRVRPPRLPRPRPRPTNIPRP | -0.783
9 | RRIRIRPPRLPRPRPRPQGVPRP | -0.0375
10 | RRIRVRPPRLPRPRPRPFANPRP | -0.0887
11 | RRIRLRPPRLPRPRPRPIWQPRP | 0.0488
12 | RRIRYRPPRLPRPRPRPHPHPRP | -0.744
13 | RRIRYRPPRLPRPRPRPWYYPRP | -0.00865
14 | RRIRWRPPRLPRPRPRPEIHPRP | -0.0167
15 | RRIRCRPPRLPRPRPRPILPPRP | -0.287
16 | RRIRLRPPRLPRPRPRPLRWPRP | 0.524
17 | RRIRTRPPRLPRPRPRPVFKPRP | 0.0882
18 | RRIRKRPPRLPRPRPRPQHEPRP | 0.198
19 | RRIRSRPPRLPRPRPRPVEHPRP | -0.16
20 | RRIRQRPPRLPRPRPRPMFWPRP | 0.0915
21 | RRIRLRPPRLPRPRPRPLWMPRP | -0.00586
22 | RRIRLRPPRLPRPRPRPNDDPRP | -0.248
23 | RRIRCRPPRLPRPRPRPWMEPRP | -0.344
24 | RRIRLRPPRLPRPRPRPYHWPRP | -0.188
25 | RRIRSRPPRLPRPRPRPVYEPRP | -0.617

Row | Sequence | shrunken log2 fold change
26 | RRIRKRPPRLPRPRPRPNQQPRP | 0.101
27 | RRIRYRPPRLPRPRPRPSSQPRP | -0.261
28 | RRIRLRPPRLPRPRPRPWMYPRP | -0.0417
29 | RRIRPRPPRLPRPRPRPKVVPRP | 0.454
30 | RRIRERPPRLPRPRPRPVLFPRP | -0.141
31 | RRIRLRPPRLPRPRPRPDILPRP | -0.154
32 | RRIRHRPPRLPRPRPRPMAIPRP | 0.0143
33 | RRIRMRPPRLPRPRPRPNREPRP | 0.0182
34 | RRIRQRPPRLPRPRPRPCTFPRP | -0.121
35 | RRIRTRPPRLPRPRPRPCWDPRP | -0.192
36 | RRIRTRPPRLPRPRPRPNQVPRP | 0.00376
37 | RRIRPRPPRLPRPRPRPCILPRP | -1.04
38 | RRIRDRPPRLPRPRPRPMFAPRP | 0.199
39 | RRIRPRPPRLPRPRPRPVMPPRP | 0.188
40 | RRIRVRPPRLPRPRPRPSKDPRP | -0.563
41 | RRIRDRPPRLPRPRPRPNAEPRP | 0.359
42 | RRIRIRPPRLPRPRPRPAQYPRP | -0.13
43 | RRIRIRPPRLPRPRPRPFGLPRP | -0.129
44 | RRIRNRPPRLPRPRPRPICYPRP | -0.818
45 | RRIRYRPPRLPRPRPRPGSHPRP | -1.48
46 | RRIRCRPPRLPRPRPRPWGKPRP | -0.102
47 | RRIRPRPPRLPRPRPRPCWFPRP | -0.0933
48 | RRIRNRPPRLPRPRPRPENSPRP | -0.00522
49 | RRIRLRPPRLPRPRPRPWWEPRP | 0.176
50 | RRIRCRPPRLPRPRPRPHCSPRP | -0.769

Row | Sequence | shrunken log2 fold change
51 | RRIRFRPPRLPRPRPRPWNLPRP | 0.0325
52 | RRIRRRPPRLPRPRPRPHNPPRP | -0.0181
53 | RRIRARPPRLPRPRPRPRCHPRP | 0.308
54 | RRIRTRPPRLPRPRPRPFHDPRP | 0.0356
55 | RRIRLRPPRLPRPRPRPHKFPRP | -0.138
56 | RRIRIRPPRLPRPRPRPQTNPRP | -0.423
57 | RRIRKRPPRLPRPRPRPAQTPRP | 0.246
58 | RRIRVRPPRLPRPRPRPPIGPRP | 0.174
59 | RRIRNRPPRLPRPRPRPDLWPRP | 0.551
60 | RRIRLRPPRLPRPRPRPTPHPRP | 0.322
61 | RRIRVRPPRLPRPRPRPYKYPRP | -0.835
62 | RRIRTRPPRLPRPRPRPSAAPRP | 0.186
63 | RRIRDRPPRLPRPRPRPLAQPRP | 0.83
64 | RRIRTRPPRLPRPRPRPFTFPRP | -0.187
65 | RRIRVRPPRLPRPRPRPCDEPRP | -0.488
66 | RRIRLRPPRLPRPRPRPQQMPRP | -0.29
67 | RRIRVRPPRLPRPRPRPVGKPRP | -0.0282
68 | RRIRARPPRLPRPRPRPDSIPRP | -0.0582
69 | RRIRKRPPRLPRPRPRPECPPRP | 0.306
70 | RRIRSRPPRLPRPRPRPCTAPRP | -0.231
71 | RRIRQRPPRLPRPRPRPSFWPRP | 0.0712
72 | RRIRERPPRLPRPRPRPICTPRP | -0.249
73 | RRIRVRPPRLPRPRPRPSIHPRP | -0.755
74 | RRIRGRPPRLPRPRPRPHWYPRP | -0.0365
75 | RRIRVRPPRLPRPRPRPRPSPRP | 0.382

Row | Sequence | shrunken log2 fold change
76 | RRIRMRPPRLPRPRPRPIYKPRP | -0.0684
77 | RRIRRRPPRLPRPRPRPPLRPRP | 0.964
78 | RRIRWRPPRLPRPRPRPQYLPRP | -0.12
79 | RRIRARPPRLPRPRPRPIHDPRP | -0.0961
80 | RRIRTRPPRLPRPRPRPKQFPRP | -0.103
81 | RRIRRRPPRLPRPRPRPDHIPRP | 0.0664
82 | RRIRDRPPRLPRPRPRPRNYPRP | -0.313
83 | RRIRDRPPRLPRPRPRPTCEPRP | 0.705
84 | RRIRERPPRLPRPRPRPAMYPRP | -0.205
85 | RRIRFRPPRLPRPRPRPRYGPRP | -0.299
86 | RRIRDRPPRLPRPRPRPTWPPRP | 0.501
87 | RRIRLRPPRLPRPRPRPHNTPRP | -0.61
88 | RRIRYRPPRLPRPRPRPQWHPRP | -0.638
89 | RRIRHRPPRLPRPRPRPRWRPRP | 0.355
90 | RRIRGRPPRLPRPRPRPFRFPRP | 0.485
91 | RRIRHRPPRLPRPRPRPAYEPRP | 0.0981
92 | RRIRKRPPRLPRPRPRPNDTPRP | -0.11
93 | RRIRCRPPRLPRPRPRPQVKPRP | 0.0486
94 | RRIRVRPPRLPRPRPRPRGEPRP | 0.254
95 | RRIRQRPPRLPRPRPRPEADPRP | 0.138
96 | RRIRTRPPRLPRPRPRPGYFPRP | -0.0719
97 | RRIRLRPPRLPRPRPRPRCHPRP | -0.277
98 | RRIRMRPPRLPRPRPRPHIVPRP | 0.0532
99 | RRIRGRPPRLPRPRPRPAKMPRP | 0.538
100 | RRIRDRPPRLPRPRPRPMQAPRP | -0.00208

Row | Sequence | shrunken log2 fold change
101 | RRIRPRPPRLPRPRPRPKLCPRP | -0.0437
102 | RRIRYRPPRLPRPRPRPANCPRP | -0.225
103 | RRIRARPPRLPRPRPRPCMSPRP | 0.19
104 | RRIRVRPPRLPRPRPRPFQFPRP | -0.171
105 | RRIRNRPPRLPRPRPRPIYHPRP | -0.526
106 | RRIRERPPRLPRPRPRPMEDPRP | -0.0739
107 | RRIRARPPRLPRPRPRPCMAPRP | 0.104
108 | RRIRERPPRLPRPRPRPTSSPRP | -0.303
109 | RRIRMRPPRLPRPRPRPPMDPRP | 0.343
110 | RRIRQRPPRLPRPRPRPHNDPRP | -0.421
111 | RRIRTRPPRLPRPRPRPSSMPRP | -0.239
112 | RRIRVRPPRLPRPRPRPIVHPRP | -0.00223
113 | RRIRVRPPRLPRPRPRPIIGPRP | 0.0272
114 | RRIRFRPPRLPRPRPRPAERPRP | 0.0603
115 | RRIRHRPPRLPRPRPRPNHLPRP | -0.0856
116 | RRIRARPPRLPRPRPRPQFWPRP | 0.148
117 | RRIRARPPRLPRPRPRPTTFPRP | 0.177
118 | RRIRNRPPRLPRPRPRPNENPRP | 0.215
119 | RRIRWRPPRLPRPRPRPSIAPRP | 0.0837
120 | RRIRLRPPRLPRPRPRPDALPRP | -0.354
121 | RRIRDRPPRLPRPRPRPNGCPRP | -0.00152
122 | RRIRTRPPRLPRPRPRPMDWPRP | -0.05
123 | RRIRQRPPRLPRPRPRPVNAPRP | 0.00432
124 | RRIRGRPPRLPRPRPRPSEVPRP | 0.425
125 | RRIRTRPPRLPRPRPRPEHVPRP | 0.0823

Row | Sequence | shrunken log2 fold change
126 | RRIRPRPPRLPRPRPRPADFPRP | -0.00303
127 | RRIRCRPPRLPRPRPRPGNFPRP | -0.0984
128 | RRIRFRPPRLPRPRPRPRPFPRP | 0.401
129 | RRIRVRPPRLPRPRPRPQGEPRP | -0.227
130 | RRIRWRPPRLPRPRPRPNHYPRP | -0.605
131 | RRIRSRPPRLPRPRPRPPEYPRP | -0.154
132 | RRIRCRPPRLPRPRPRPSQIPRP | -0.698
133 | RRIRDRPPRLPRPRPRPNWWPRP | 0.22
134 | RRIRCRPPRLPRPRPRPIVNPRP | -0.239
135 | RRIRQRPPRLPRPRPRPWGFPRP | 0.0223
136 | RRIRRRPPRLPRPRPRPKSFPRP | 0.0604
137 | RRIRIRPPRLPRPRPRPDNTPRP | -0.947
138 | RRIRTRPPRLPRPRPRPLATPRP | 0.0927
139 | RRIRYRPPRLPRPRPRPYNFPRP | -0.246
140 | RRIRERPPRLPRPRPRPCFPPRP | -0.166
141 | RRIRRRPPRLPRPRPRPDGNPRP | 0.0694
142 | RRIRARPPRLPRPRPRPVRPPRP | 0.602
143 | RRIRPRPPRLPRPRPRPRFHPRP | -0.108
144 | RRIRLRPPRLPRPRPRPFVAPRP | -0.0302
145 | RRIRARPPRLPRPRPRPSQRPRP | 0.373
146 | RRIRARPPRLPRPRPRPMNMPRP | -0.0785
147 | RRIRYRPPRLPRPRPRPCFTPRP | -0.941
148 | RRIRLRPPRLPRPRPRPFSEPRP | -0.0881
149 | RRIRLRPPRLPRPRPRPVNHPRP | 0.197
150 | RRIRNRPPRLPRPRPRPVGRPRP | 0.118

Source: the supplement of paper PMC9112550, “Optimization of the antimicrobial peptide Bac7 by deep mutational scanning” (BMC Biology, 2022)
